Each block holds one molecule with its values, some of them ahead of it. Where no end group is shown, it is not given here. [ ]: non-standard residue; d: D form. pS = N[C@@H](COP(=O)(O)O)C(=O)O
Experiments:
[1] = biological target: 14-3-3 protein (endogenous rice OsGF14; isoform not specified); assay: cell-based or functional assay
[2] = biological target: T1, OsGF14b mutant R232A, yeast two-hybrid fusion (rice, UniProt Q7XTE8 1-262); assay: yeast two-hybrid, growth on selective medium
T1 construct: not shown: two-hybrid fusion partner encoded by pBTM116-GW or pVP16-GW
T1 sequence: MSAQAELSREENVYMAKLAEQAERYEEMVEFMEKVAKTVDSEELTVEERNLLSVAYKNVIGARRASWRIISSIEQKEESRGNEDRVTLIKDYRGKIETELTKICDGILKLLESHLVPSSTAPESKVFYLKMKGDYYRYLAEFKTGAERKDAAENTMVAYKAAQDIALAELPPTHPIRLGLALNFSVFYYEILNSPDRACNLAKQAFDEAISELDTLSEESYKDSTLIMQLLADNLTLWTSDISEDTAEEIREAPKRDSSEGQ
Method: (§1) For an interaction assay, pBTM116 and pVP16 were converted to pBTM116-GW and pVP16-GW, respectively, using a Gateway vector conversion system (Invitrogen) according to the manufacturer's instructions. Yeast cells were grown at 30° C. for 5 days using an SC medium (without uracil, tryptophan, leucine, and histidine), the medium containing added histidine or 1 to 10 mM 3-aminotriazole (+His or +3-AT). The concentration of 3-AT was determined by a bait-prey combination.
(§2) Various mutant proteins were produced by constructing plasmids as described below. […] The PCR-amplified fragments were cloned into a pENTR/D-TOPO cloning vector (Invitrogen) to obtain entry clones.

[3] = biological target: T2, OsGF14b mutant F206A, yeast two-hybrid fusion (rice, UniProt Q7XTE8 1-262); assay: yeast two-hybrid, growth on selective medium
T2 construct: not shown: yeast two-hybrid fusion partner encoded by pBTM116-GW or pVP16-GW, and its linker
T2 sequence: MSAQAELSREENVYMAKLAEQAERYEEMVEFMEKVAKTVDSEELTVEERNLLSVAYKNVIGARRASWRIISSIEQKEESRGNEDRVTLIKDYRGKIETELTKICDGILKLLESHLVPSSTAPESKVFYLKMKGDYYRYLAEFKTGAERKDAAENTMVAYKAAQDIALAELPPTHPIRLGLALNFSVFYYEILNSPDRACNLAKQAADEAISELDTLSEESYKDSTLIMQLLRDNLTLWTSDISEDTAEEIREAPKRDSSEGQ
Method: as §1, §2

[4] = biological target: T3, OsGF14b mutant Y221A, yeast two-hybrid fusion (rice, UniProt Q7XTE8 1-262); assay: yeast two-hybrid, growth on selective medium
T3 construct: not shown: two-hybrid fusion partner encoded by pBTM116-GW or pVP16-GW
T3 sequence: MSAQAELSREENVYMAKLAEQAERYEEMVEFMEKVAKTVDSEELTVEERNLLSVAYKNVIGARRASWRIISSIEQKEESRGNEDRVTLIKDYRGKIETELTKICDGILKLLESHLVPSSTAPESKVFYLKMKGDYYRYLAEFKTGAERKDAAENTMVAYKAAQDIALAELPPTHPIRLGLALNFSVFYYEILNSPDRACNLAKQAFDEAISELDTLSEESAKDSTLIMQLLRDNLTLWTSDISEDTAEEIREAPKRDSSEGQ
Method: as §1, §2

[5] = biological target: T4, OsGF14b mutant D233A, yeast two-hybrid fusion (rice, UniProt Q7XTE8 1-262); assay: yeast two-hybrid, growth on selective medium
T4 construct: not shown: two-hybrid fusion partner encoded by pBTM116-GW or pVP16-GW
T4 sequence: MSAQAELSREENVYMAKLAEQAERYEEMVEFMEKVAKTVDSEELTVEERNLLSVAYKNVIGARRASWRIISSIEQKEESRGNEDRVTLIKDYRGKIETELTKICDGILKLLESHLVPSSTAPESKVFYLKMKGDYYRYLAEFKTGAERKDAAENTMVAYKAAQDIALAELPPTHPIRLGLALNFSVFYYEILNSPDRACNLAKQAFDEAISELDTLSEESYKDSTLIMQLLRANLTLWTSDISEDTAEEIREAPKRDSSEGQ
Method: as §1, §2

[6] = biological target: T5, OsGF14b (Os04g0462500), full-length, yeast two-hybrid fusion (rice, UniProt Q7XTE8 1-262); assay: yeast two-hybrid, growth on selective medium
T5 construct: not shown: two-hybrid fusion partner encoded by pBTM116-GW or pVP16-GW
T5 sequence: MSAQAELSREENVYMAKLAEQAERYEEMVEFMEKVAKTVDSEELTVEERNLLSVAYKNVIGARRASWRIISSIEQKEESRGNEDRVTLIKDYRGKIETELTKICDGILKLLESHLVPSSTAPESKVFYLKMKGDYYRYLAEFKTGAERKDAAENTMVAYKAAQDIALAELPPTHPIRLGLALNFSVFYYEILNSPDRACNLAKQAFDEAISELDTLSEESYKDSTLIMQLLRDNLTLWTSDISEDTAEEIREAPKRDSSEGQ
Method: as §1, §2

[7] = biological target: T6, OsGF14b mutant E218A, yeast two-hybrid fusion (rice, UniProt Q7XTE8 1-262); assay: yeast two-hybrid, growth on selective medium
T6 construct: not shown: yeast two-hybrid fusion partner encoded by pBTM116-GW or pVP16-GW, and its linker
T6 sequence: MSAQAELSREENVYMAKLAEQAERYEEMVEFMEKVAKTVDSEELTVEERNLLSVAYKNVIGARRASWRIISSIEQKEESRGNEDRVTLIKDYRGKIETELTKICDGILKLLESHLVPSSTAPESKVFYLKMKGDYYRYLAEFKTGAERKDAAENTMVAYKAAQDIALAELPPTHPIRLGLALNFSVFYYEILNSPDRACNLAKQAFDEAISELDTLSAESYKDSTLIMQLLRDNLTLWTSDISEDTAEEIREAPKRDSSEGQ
Method: as §1, §2

[8] = biological target: T7, OsGF14b mutant I210A, yeast two-hybrid fusion (rice, UniProt Q7XTE8 1-262); assay: yeast two-hybrid, growth on selective medium
T7 construct: not shown: yeast two-hybrid fusion partner encoded by pBTM116-GW or pVP16-GW, and its linker
T7 sequence: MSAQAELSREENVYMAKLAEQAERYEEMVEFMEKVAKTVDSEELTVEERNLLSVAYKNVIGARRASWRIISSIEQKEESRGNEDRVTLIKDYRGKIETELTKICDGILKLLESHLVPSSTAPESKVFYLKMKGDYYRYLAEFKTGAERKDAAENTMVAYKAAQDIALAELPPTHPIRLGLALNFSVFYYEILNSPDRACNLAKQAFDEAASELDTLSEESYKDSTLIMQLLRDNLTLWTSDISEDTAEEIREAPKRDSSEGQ
Method: as §1, §2

[9] = biological target: T8, Hd3a, full-length, Vn- or Vc-tagged (BiFC) (rice, UniProt Q93WI9 1-179); assay: BiFC (Venus) in rice Oc protoplasts (endogenous 14-3-3 proteins present)
T8 construct: it is put first only for listing; not shown: Vn or Vc fragment of Venus (BiFC tag), at the N- or C-terminal
T8 sequence (Q93WI9 whole entry, the tested form may be a part): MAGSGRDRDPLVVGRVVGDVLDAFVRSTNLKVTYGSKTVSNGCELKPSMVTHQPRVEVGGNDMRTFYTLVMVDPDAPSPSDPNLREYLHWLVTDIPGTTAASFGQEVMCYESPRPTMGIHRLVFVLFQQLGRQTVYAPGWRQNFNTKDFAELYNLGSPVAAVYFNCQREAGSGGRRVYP
Method: (§3) (1) The transformation of rice Oc protoplasts was performed by a method described in Kyozuka and Shimamoto 1991, Plant J. 6, 271 (1994), Non Patent Literature 1, or the like. Fluorescent protein expression vectors having introduced therein various proteins were introduced into a protoplast suspension (2×10⁷ protoplasts/ml) by a PEG method (PEG-mediated method). After incubation at 30° C. for 24 hours, transformed protoplasts were obtained and used for microscopic observation.
(§4) Therefore, the number of cells showing higher values than the above-mentioned values was scored.

[10] = biological target: T9, GF14b, full-length, Vn- or Vc-tagged (BiFC) (rice, UniProt Q7XTE8 1-262); assay: BiFC (Venus) in rice Oc protoplasts
T9 construct: it is put first only for listing; also called OsGF14b; not shown: Vn or Vc fragment of Venus (BiFC tag), at the N- or C-terminal
T9 sequence: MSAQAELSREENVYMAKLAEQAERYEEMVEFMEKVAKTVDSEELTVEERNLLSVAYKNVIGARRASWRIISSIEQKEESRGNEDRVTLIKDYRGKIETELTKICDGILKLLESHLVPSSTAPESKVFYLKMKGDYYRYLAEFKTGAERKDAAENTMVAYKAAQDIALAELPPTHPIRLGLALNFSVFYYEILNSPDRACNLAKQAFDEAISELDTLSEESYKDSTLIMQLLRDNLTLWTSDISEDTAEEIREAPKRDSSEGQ
Method: as §3, §4

[11] = biological target: T10, GST-fused Hd3a protein (full-length Hd3a) (rice, UniProt Q93WI9 1-179); assay: in vitro GST pull-down, GST-Hd3a on glutathione resin, SDS-PAGE
T10 construct: also called GST-Hd3a; not shown: GST (glutathione S-transferase) fusion partner
T10 sequence (Q93WI9 whole entry, the tested form may be a part): as the sequence (Q93WI9 whole entry, the tested form may be a part) above
Method: After that, the resin was washed with a phosphate buffer (pH 6.8) containing 50 mM KCl and 1 mM DTT to remove a free GST-fused protein unbound to the resin. The isolated and purified GST protein bound to the resin was used as a negative control. […] After that, the resins were washed with a phosphate buffer (pH 6.8) containing 50 mM KCl and 1 mM DTT to remove a free GST-GF14c polypeptide unbound to the resins. Each of the bound proteins was eluted with a phosphate buffer (pH 6.8) containing 50 mM glutathione, 50 mM KCl, and 1 mM DTT and confirmed by SDS polyacrylamide electrophoresis.

[12] = biological target: T11, GF14c residues 1 to 235 (crystallization construct) (rice, UniProt Q6ZKC0 1-235); assay: X-ray crystal structure of the florigen activation complex; peptide soaked into Hd3a-GF14c crystals
T11 construct: Expressed in E. coli and purified; co-crystallized with Hd3a 6-170; also called 14-3-3 protein
T11 sequence: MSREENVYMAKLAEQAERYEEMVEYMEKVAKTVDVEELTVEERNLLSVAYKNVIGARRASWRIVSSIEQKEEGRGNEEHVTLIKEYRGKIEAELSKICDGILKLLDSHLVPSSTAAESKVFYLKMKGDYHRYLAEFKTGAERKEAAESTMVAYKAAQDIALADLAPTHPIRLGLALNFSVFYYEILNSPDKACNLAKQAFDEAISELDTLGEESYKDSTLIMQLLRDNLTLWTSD
Method: The crystallization of the complex was performed at 4° C. by a sitting drop method using a mixture of 1 μl of the protein solution (protein concentration: 10 mg/mL) and 1 μl of a precipitant solution (0.1 M HEPES (pH 7.5), 0.2 M ammonium sulfate, and 25% PEG 3350).

Molecule: Hd3a(R64G/R132A)-GFP (prolC::Hd3a(R64G/R132A)::GFP) (from UniProt Q93WI9 1-179)
Days to flowering (days) of transgenic rice [1]: 58.8 days

Molecule: Hd3a-GFP-fused protein (full-length Hd3a coding region conjugated to GFP) (from UniProt Q93WI9 1-179)
Days to flowering (days) of transgenic rice [1]: 19.6 days

Molecule: Hd3a(R64G)-GFP (prolC::Hd3a(R64G)::GFP) (from UniProt Q93WI9 1-179)
Days to flowering (days) of transgenic rice [1]: 44.2 days

Results, then the molecule that gave them:

binding result [2]: binds
binding result [3]: binds
binding result [4]: binds
binding result [5]: binds
binding result [6]: binds
binding result [7]: binds
binding result [8]: binds
B1: OsFD1 (Os09g0540800), full-length, yeast two-hybrid fusion (other)
chain: MAMEDDEDMWANTSSPSASPPRPRGFISTALSLNSTHLQGLLPSSFVDAAASPCHASGNNNGGGDGRNAAPMSSIFFASASYHQQQHHLPAPAPLDGAILPARRFGLDMCAAAAAAPAGVPAAGDRRKRRMIKNRESAARSRARKQARVNNLETEVEQLKQENKMLRVKYEQLRKTVEVPVPVRRTLQRVLSAPF
notes: not shown: two-hybrid fusion partner encoded by pBTM116-GW or pVP16-GW

binding result [9]: binds
binding result [10]: binds
B2: OsFD1, full-length, Vn- or Vc-tagged (BiFC) (other)
chain: MAMEDDEDMWANTSSPSASPPRPRGFISTALSLNSTHLQGLLPSSFVDAAASPCHASGNNNGGGDGRNAAPMSSIFFASASYHQQQHHLPAPAPLDGAILPARRFGLDMCAAAAAAPAGVPAAGDRRKRRMIKNRESAARSRARKQARVNNLETEVEQLKQENKMLRVKYEQLRKTVEVPVPVRRTLQRVLSAPF
notes: it is put first only for listing; not shown: Vn or Vc fragment of Venus (BiFC tag), at the N- or C-terminal

binding result [11]: no binding
Molecule: ARVNNLETEVEQLKQENKMLRVKYEQLRKTVEVPVPVRRTLQRVLEAPF (other)

binding result [12]: binds
Molecule: LQRVL[pS]APF (Soaked at 2 mM into Hd3a-GF14c crystals) [OsFD1 polypeptide, residues 187 to 195, chemically synthesized]
